Assay results published in US7138262B1, “High mannose proteins and methods of making high mannose proteins” (Shire Human Genetic Therapies, Inc., priority 2000, dated 2006).

Tested on: mouse J774E cells
Assay: Internalization (uptake) of glucocerebrosidase into J774E macrophage cells, with or without mannan
Type: cell-based
Settings: for Glucocerebrosidase Activity, Absolute / Glucocerebrosidase Activity, Background Corrected / uptake of GA-GCB over background: GA-GCB 10 μg/mL; for Glucocerebrosidase Activity, Absolute: 4 hours at 37° C.; for Glucocerebrosidase Activity, Background Corrected / uptake of GA-GCB over background: 4 hours; for Inhibition (%) of uptake by mannan: mannan 2 μg/mL, competitor for the mannose receptor
Method: GA-GCB produced in HT-1080 cells was used in an in vitro assay to determine uptake efficiency in a mouse macrophage cell line. The specific objective of the experiment was to determine the absolute and mannose receptor-specific uptake of GA-GCB in mouse J774E cells. One day prior to assay, J774E cells were plated at 50,000 cells/cm^2 in 12 well plates in Growth Medium. For the assay, 0.5 mL of Production Medium (DMEM/F12), 0% calf serum) containing 50 nM vitamin D3 (1,2-5, Dihydroxy vitamin D3) was added to the cells. Unpurified GA-GCB (from harvest 4, Table 1) was added to the test wells at a final concentration of 10 μg/mL in the presence or absence of 2 μg/mL mannan (a competitor for the mannose receptor). Three different forms of GA-GCB were used: GA-GCB from cells treated with kifunensine (1 μg/mL), GA-GCB from cells treated with swainsonine (1 μg/mL), and GA-GCB (1 μg/mL) from untreated cells. Control wells received no GA-GCB. The wells were incubated for 4 hours at 37° C., then washed extensively in buffered saline, scraped into GA-GCB enzyme reaction buffer, passed through 2 freeze/thaw cycles, and clarified by centrifugation. The supernantant was then quantitatively tested for enzyme activity and total protein. Internalization of GA-GCB into mouse J744E cells is shown in Table 2 and is reported as Units/mg of cell lysate. […] Thus, the inhibition of intracellular mannosidases by either kifunensine or swainsonine results in GA-GCB that can be transported into cells efficiently via the mannose receptor, with kifunensine causing an approximately 2-fold greater uptake than swainsonine. Improvement in targeting of GA-GCB to cells via mannose receptors can therefore be optimized by production of GA-GCB in the presence of kifunensine or swainsonine.

| Molecule | Glucocerebrosidase Activity, Absolute (+ mannan 2 μg/mL) [Units/mg cell lysate] | Glucocerebrosidase Activity, Absolute (without mannan) [Units/mg cell lysate] | Glucocerebrosidase Activity, Background Corrected (+ mannan 2 μg/mL) [Units/mg cell lysate] | Glucocerebrosidase Activity, Background Corrected (without mannan) [Units/mg cell lysate] | uptake of GA-GCB over background (without mannan) | Inhibition (%) of uptake by mannan [%] | hmGCB uptake by macrophages compared to uptake of GCB secreted from cells (summary statement) |
| --- | --- | --- | --- | --- | --- | --- | --- |
| GA-GCB from kifunensine treated cells: unpurified gene-activated glucocerebrosidase from HT-1080 cells treated with kifunensine (1 μg/mL) (protein) ARPCIPKSFGYSSVVCVCNATYCDSFDPPTFPALGTFSRYESTRSGRRMELSMGPIQANHTGTGLLLTLQPEQKFQKVKGFGGAMTDAAALNILALSPPAQNLLLKSYFSEEGIGYNIIRVPMASCDFSIRTYTYADTPDDFQLHNFSLPEEDTKLKIPLIHRALQLAQRPVSLLASPWTSPTWLKTNGAVNGKGSLKGQPGDIYHQTWARYFVKFLDAYAEHKLQFWAVTAENEPSAGLLSGYPFQCLGFTPEHQRDFIARDLGPTLANSTHHNVRLLMLDDQRLLLPHWAKVVLTDPEAAKYVHGIAVHWYLDFLAPAKATLGETHRLFPNTMLFASEACVGSKFWEQSVRLGSWDRGMQYSHSIITNLLYHVVGWTDWNLALNPEGGPNWVRNFVDSPIIVDITKDTFYKQPMFYHLGHFSKFIPEGSQRVGLVASQKNDLDAVALMHPDGSAVVVVLNRSSKDVPLTIKDPAVGFLETISPGYSIHTYLWRRQ | 2977 | 9185 | 2322 | 8530 | 14 fold | 73 |  |
| GA-GCB from swainsonine treated cells: unpurified gene-activated glucocerebrosidase from HT-1080 cells treated with swainsonine (1 μg/mL) (protein) ARPCIPKSFGYSSVVCVCNATYCDSFDPPTFPALGTFSRYESTRSGRRMELSMGPIQANHTGTGLLLTLQPEQKFQKVKGFGGAMTDAAALNILALSPPAQNLLLKSYFSEEGIGYNIIRVPMASCDFSIRTYTYADTPDDFQLHNFSLPEEDTKLKIPLIHRALQLAQRPVSLLASPWTSPTWLKTNGAVNGKGSLKGQPGDIYHQTWARYFVKFLDAYAEHKLQFWAVTAENEPSAGLLSGYPFQCLGFTPEHQRDFIARDLGPTLANSTHHNVRLLMLDDQRLLLPHWAKVVLTDPEAAKYVHGIAVHWYLDFLAPAKATLGETHRLFPNTMLFASEACVGSKFWEQSVRLGSWDRGMQYSHSIITNLLYHVVGWTDWNLALNPEGGPNWVRNFVDSPIIVDITKDTFYKQPMFYHLGHFSKFIPEGSQRVGLVASQKNDLDAVALMHPDGSAVVVVLNRSSKDVPLTIKDPAVGFLETISPGYSIHTYLWRRQ | 2036 | 4787 | 1381 | 4132 | 7 fold | 67 |  |
| GA-GCB from untreated cells: unpurified gene-activated glucocerebrosidase from HT-1080 cells without drug treatment (protein) ARPCIPKSFGYSSVVCVCNATYCDSFDPPTFPALGTFSRYESTRSGRRMELSMGPIQANHTGTGLLLTLQPEQKFQKVKGFGGAMTDAAALNILALSPPAQNLLLKSYFSEEGIGYNIIRVPMASCDFSIRTYTYADTPDDFQLHNFSLPEEDTKLKIPLIHRALQLAQRPVSLLASPWTSPTWLKTNGAVNGKGSLKGQPGDIYHQTWARYFVKFLDAYAEHKLQFWAVTAENEPSAGLLSGYPFQCLGFTPEHQRDFIARDLGPTLANSTHHNVRLLMLDDQRLLLPHWAKVVLTDPEAAKYVHGIAVHWYLDFLAPAKATLGETHRLFPNTMLFASEACVGSKFWEQSVRLGSWDRGMQYSHSIITNLLYHVVGWTDWNLALNPEGGPNWVRNFVDSPIIVDITKDTFYKQPMFYHLGHFSKFIPEGSQRVGLVASQKNDLDAVALMHPDGSAVVVVLNRSSKDVPLTIKDPAVGFLETISPGYSIHTYLWRRQ | 1678 | 2816 | 1023 | 2161 | approximately 3 fold | 53 |  |
| hmGCB: glucocerebrosidase having at least one carbohydrate chain having four or more mannose residues from a precursor oligosaccharide (protein) ARPCIPKSFGYSSVVCVCNATYCDSFDPPTFPALGTFSRYESTRSGRRMELSMGPIQANHTGTGLLLTLQPEQKFQKVKGFGGAMTDAAALNILALSPPAQNLLLKSYFSEEGIGYNIIRVPMASCDFSIRTYTYADTPDDFQLHNFSLPEEDTKLKIPLIHRALQLAQRPVSLLASPWTSPTWLKTNGAVNGKGSLKGQPGDIYHQTWARYFVKFLDAYAEHKLQFWAVTAENEPSAGLLSGYPFQCLGFTPEHQRDFIARDLGPTLANSTHHNVRLLMLDDQRLLLPHWAKVVLTDPEAAKYVHGIAVHWYLDFLAPAKATLGETHRLFPNTMLFASEACVGSKFWEQSVRLGSWDRGMQYSHSIITNLLYHVVGWTDWNLALNPEGGPNWVRNFVDSPIIVDITKDTFYKQPMFYHLGHFSKFIPEGSQRVGLVASQKNDLDAVALMHPDGSAVVVVLNRSSKDVPLTIKDPAVGFLETISPGYSIHTYLWRRQ |  |  |  |  |  |  | increased |
